B1: PCDHGA10 (parent)
chain: FHELQMQVTASDSGDPPLSSNVSL
B2: ZBTB22 (parent)
chain: FSSSSQEAFAASAVGSGERRGGGP

Variants of: B1
Assay: protein stability index of a GFP-peptide fusion (GPS, HEK-293T) (PSI 1-6); higher = more stable
Settings: c terminus: a fixed tail appended
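Note: lentivirally expressed fusions sorted by FACS into six bins by GFP to DsRed ratio, PSI derived from sequencing read proportions per bin multiplied by bin number.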

Protein stability index: each site, then its substitutions
F1: I 3.74 | G 4.74 | S 5.08 | Y 2.78 | Q 4.62 | K 4.51 | V 4.11 | M 4.06 | P 4.8 | N 4.61 | T 4.57 | W 3.81 | A 4.58 | H 4.61 | D 4.91 | E 5.2 | L 4.5 | C 3.83 | R 4.66
H2: G 3.94 | L 2.51 | N 4.47 | F 2.21 | I 1.88 | D 4.49 | M 2.81 | E 4.28 | P 3.99 | K 3.84 | A 3.07 | C 2.11

Variants of: B2
Assay: as above
Settings: c terminus: a fixed tail appended

Protein stability index of substitutions, site by site:
A11: F 2.19 | E 3.85 | Y 3.13 | W 1.86 | H 3.02 | G 2.86 | T 3.32 | L 3.04 | Q 3.44 | I 2.32 | N 3.88 | D 4.39 | S 3.88 | M 3.4 | K 4.5 | V 2.13 | C 1.95 | R 3.74
A13: N 2.57 | H 3.17 | D 3.9 | R 3.78 | P 3.43 | T 2.71 | G 3.01 | Q 3.28 | E 3.93 | I 3.04 | W 3.02 | F 2.64 | Y 3.26 | K 3.36 | V 3.87 | L 3.13 | M 2.79 | C 2.25 | S 3.31
R20: H 2.96 | Y 3.3 | S 3.68 | T 3.63 | V 3.41 | G 3.14 | P 4.34 | F 2.97 | C 2.9 | E 4.12 | M 3.3 | W 2.21 | A 3.42 | D 3.64 | I 3.17 | L 3.78 | K 3.37 | N 3.36 | Q 3.71
G15: F 2.02 | Y 2.58 | A 3.09 | N 3.43 | S 3.61 | D 4.16 | R 2.78 | Q 3.26 | K 3.41 | M 3.25 | H 3.24 | I 3.3 | P 3.58 | L 3.89 | E 3.85 | T 3.12 | C 2.94 | V 2.53 | W 2.72
P24: T 3.07 | Q 2.79 | K 3.33 | V 2.92 | L 3.32 | N 3.29 | M 2.43 | Y 2.86 | A 3.5 | H 3.75 | D 3.89 | R 3.03 | G 2.6 | I 2.6 | F 2.73 | C 3.21 | E 3.8 | S 3.41 | W 2.22
A8: Y 1.88 | T 3.46 | V 2.11
S16: N 3.38 | V 3.52 | K 3.34 | H 3.27 | A 3.29 | L 2.75 | G 3.18 | T 3.61 | Y 2.96 | R 3.35 | E 4.25 | I 3.06 | M 3.37 | P 3.4 | W 2.17 | Q 2.96 | D 3.63 | F 2.4
G23: I 2.74 | S 3.25 | P 3.54 | Q 3.26 | N 3.4 | D 4.21 | L 2.94 | V 3.03 | K 4.06 | T 3.27 | H 3.39 | A 3.57 | C 3.46 | E 3.53 | M 2.91 | R 3.48 | W 1.43 | Y 2.87 | F 3.75
G21: I 3.48 | N 3.45 | D 4.06 | L 3.05 | V 2.84 | M 3.4 | S 3.85 | K 2.69 | T 2.94 | C 3.48 | E 3.68 | W 2.31 | R 3.35 | Y 3.22 | P 3.69 | H 3.03 | F 3.22 | A 3.64 | Q 3.73
E18: N 2.55 | Y 2.69 | F 2.86 | V 2.49 | I 2.36 | D 2.98 | H 3.65 | A 3.48 | K 3.31 | M 2.96 | T 2.87 | L 2.85 | P 2.97 | Q 3.24 | S 2.28 | W 2.92 | C 2.96 | G 3.84
G17: S 3.39 | E 3.52 | R 3.23 | L 3.12 | V 3.48 | Q 3.31 | D 3.88 | F 3.18 | Y 3.45 | T 3.08 | N 3.28 | M 3.35 | H 3.62 | K 2.63 | A 3.02 | I 2.74 | C 4.17 | W 2.85 | P 3.22
F9: Q 5.09 | N 4.71 | S 5.01 | E 5.92 | A 5.51 | H 4.66 | D 5.44 | L 4.92 | W 1.67 | G 4.56 | P 4.98 | K 5.2 | T 5.26 | Y 3.56 | I 4.83 | M 4.96 | C 4.57 | V 5.24 | R 4.35
S12: G 3.61 | R 2.61 | V 2.87 | Q 3.71 | A 3.56 | I 2.26 | P 3.36 | Y 1.85 | D 3.48 | L 2.36 | M 2.63 | C 2.54 | N 3.26 | F 1.47 | T 3.02 | K 3.68 | E 3.58 | H 2.94
G22: P 3.7 | W 2.19 | C 3.29 | S 3.33 | V 3.33 | M 2.44 | R 3.25 | E 3.66 | K 2.15 | I 3.3 | N 3.55 | A 3.6 | Q 3.83 | F 2.96 | L 3.65 | D 3.11 | H 3.83 | Y 2.57 | T 3.72
V14: W 1.32 | M 3.25 | Q 3.52 | L 3.77 | T 3.27 | H 3.86 | E 3.85 | F 2.99 | A 3.76 | K 3.33 | P 3.9 | S 3.25 | N 3.33 | G 3.56 | R 3.65 | Y 2.76 | D 4.5 | I 2.55 | C 3.36
A10: L 3.26 | E 4.74 | I 2.44 | T 3.26 | C 2.44 | P 3.89 | F 2.41 | Y 2.27 | D 5.25 | K 3.2 | G 3.75 | H 3.65 | S 3.22 | Q 4.09 | V 2.58 | R 3.33 | N 3.97 | M 3.16 | W 2.88
R19: D 2.53 | T 3.78 | E 4.24 | N 3.49 | P 3.36 | K 3.41 | Q 3.47 | L 2.87 | W 2.04 | S 3.86 | F 3.15 | I 3.23 | M 3.35 | C 3.07 | H 3.34 | G 3.82 | Y 3.32 | A 3.43 | V 3.46

From the supplement of paper PMC10567573
